{
  "source": "paper doi:10.1101/2021.03.25.436940",
  "target": "T1, OsGSTU5 (Oryza sativa, UniProt Q0J294 6-233)",
  "T1 sequence": "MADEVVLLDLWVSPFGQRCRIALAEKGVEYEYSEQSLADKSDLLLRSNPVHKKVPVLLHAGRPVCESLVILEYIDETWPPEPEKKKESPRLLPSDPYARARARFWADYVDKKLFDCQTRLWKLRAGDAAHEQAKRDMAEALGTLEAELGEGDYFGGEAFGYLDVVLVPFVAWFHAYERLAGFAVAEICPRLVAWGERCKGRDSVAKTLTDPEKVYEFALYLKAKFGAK",
  "assay": "EMSA",
  "data": [
    {"binder": "GCGGTGGAAGTAGCAACAGCGGTTCTAGCGGCAGCGGCG (ssDNA)", "note": "[39-nt experimental oligo (ssDNA)]", "values": [
      {"measurement": "binding result", "result": "no binding"}
    ]}
  ]
}
